Results from article PMC8784342, “Investigation of sugar binding kinetics of the E. coli sugar/H^+ symporter XylE using solid-supported membrane-based electrophysiology” (The Journal of Biological Chemistry, 2021).
Values joined by “and” are separate entries in the source; they are usually repeats but may differ in a detail not shown here. Equal entries are not always repeated.

What was measured:
Type in all cases: biochemical, Escherichia coli
[1] = substrate: OC[C@@H]1OC(O)[C@@H](O)[C@H](O)[C@@H]1O; assay: SSM-based electrophysiology, proteoliposomes with wt FucP; details: other: pH 7.6, minor substrate, peak currents, low time-resolution set up
Procedure: (§1) Reconstitution of purified proteins (2–20 mg/ml) was carried out with E. coli phospholipids (Avanti Polar Lipids, E. coli polar lipid extract). Preformed liposomes (0.2–2 ml, 10 mg/ml) were dissolved in 1% (w/v) n-octyl-β-D-glucoside, and the protein suspension was mixed on ice to a concentration of 0.2 mg protein/mg lipid (LPR 5).
(§2) Wt XylE, wt FucP, and the mutant proteins were reconstituted using overnight incubation in 400 mg/ml BioBeads (SM-2 Adsorbent Media, Bio-Rad) at 4 °C. After reconstitution, the samples were diluted to 2.5 mg/ml lipid concentration, frozen in liquid nitrogen, and stored at −80 °C. For wt LacY and mutant proteins, this procedure was not successful. We, therefore, applied the previously established n-octyl-β-D-glucoside dilution method (1:100) ([69]).
(§3) SSM measurements were performed as described ([20], [23]). After thawing the sample and sonication in a water bath, 30 μl of proteoliposomes (2.5 mg/ml lipid at LPR 5) was allowed to adsorb for 1 to 2 h to an octadecanethiol/phosphatidylcholine hybrid bilayer on a gold surface (the sensor).
(§4) For measurements, a single solution exchange configuration ([23]) was employed that consisted in three phases of 0.5 s duration each: Flow of nonactivating solution (NA), activating solution (A), and nonactivating solution (NA). Only the activating solution contained the sugar. When pH dependence is determined, pH of NA and A solutions during one experiment are kept constant. Between experiments using different pH values, the sensor was incubated at the new pH for 3 min to equilibrate the intraliposomal pH.
(§5) Instruments with different time resolution were used as required. […] Currents were recorded throughout the entire time and amplified with a current amplifier set to a gain of […] and a rise time of 10 ms (low time-resolution set up) or 3 ms (high time-resolution set up).
(§6) All NA solutions were buffered in 100 mM KPi at a given pH value. […] Sugar concentration jumps initiated sugar-proton symport, and charge transfer was measured by capacitive coupling. Therefore, only transient currents were recorded. […]

[2] = substrate: OC1OC[C@@H](O)[C@@H](O)[C@@H]1O; assay: as above
Procedure: as §1, §2, §3, §4, §5, §6

[3] = substrate: OC[C@H]1O[C@@H](O[C@@H]2[C@@H](CO)O[C@](O)(CO)[C@H]2O)[C@H](O)[C@@H](O)[C@H]1O; assay: SSM-based electrophysiology, proteoliposomes with wt LacY
Procedure: as §1
as §2, with “We, therefore, applied the previously established n-octyl-β-D-glucoside dilution method (1:100) ([69]).” left out
For measurements, a single solution exchange configuration ([23]) was employed that consisted in three phases of 0.5 s duration each: Flow of nonactivating solution (NA), activating solution (A), and nonactivating solution (NA). […] When pH dependence is determined, pH of NA and A solutions during one experiment are kept constant. […]
as §5
All NA solutions were buffered in 100 mM KPi at a given pH value. […] Therefore, only transient currents were recorded. […]

[4] = other: pH 7.6, minor substrate, peak currents, low time-resolution set up
[5] = other: pH 7.6, peak currents, Hill equation

Row | Protein | Km [1] | Km [2, 4] | K0.5 [2, 5] | Km [3, 4] | K0.5 [3, 5]
1 | wt FucP (Escherichia coli K-12) (protein, made in house; host or cells: E. coli BL21 DE3) MGNTSIQTQSYRAVDKDAGQSRSYIIPFALLCSLFFLWAVANNLNDILLPQFQQAFTLTNFQAGLIQSAFYFGYFIIPIPAGILMKKLSYKAGIITGLFLYALGAALFWPAAEIMNYTLFLVGLFIIAAGLGCLETAANPFVTVLGPESSGHFRLNLAQTFNSFGAIIAVVFGQSLILSNVPHQSQDVLDKMSPEQLSAYKHSLVLSVQTPYMIIVAIVLLVALLIMLTKFPALQSDNHSDAKQGSFSASLSRLARIRHWRWAVLAQFCYVGAQTACWSYLIRYAVEEIPGMTAGFAANYLTGTMVCFFIGRFTGTWLISRFAPHKVLAAYALIAMALCLISAFAGGHVGLIALTLCSAFMSIQYPTIFSLGIKNLGQDTKYGSSFIVMTIIGGGIVTPVMGFVSDAAGNIPTAELIPALCFAVIFIFARFRSQTATN | 7.4 ± 1.3 mM | 12.2 ± 2.8 mM | 80 ± 40 mM |  | 
2 | wt LacY (Escherichia coli K-12) (protein, made in house; host or cells: E. coli XL1-Blue) MYYLKNTNFWMFGLFFFFYFFIMGAYFPFFPIWLHDINHISKSDTGIIFAAISLFSLLFQPLFGLLSDKLGLRKYLLWIITGMLVMFAPFFIFIFGPLLQYNILVGSIVGGIYLGFCFNAGAPAVEAFIEKVSRRSNFEFGRARMFGCVGWALCASIVGIMFTINNQFVFWLGSGCALILAVLLFFAKTDAPSSATVANAVGANHSAFSLKLALELFRQPKLWFLSLYVIGVSCTYDVFDQQFANFFTSFFATGEQGTRVFGYVTTMGELLNASIMFFAPLIINRIGGKNALLLAGTIMSVRIIGSSFATSALEVVILKTLHMFEVPFLLVGCFKYITSQFEVRFSATIYLVCFCFFKQLAMIFMSVLAGNMYESIGFQGAYLVLGLVALGFTLISVFTLSGPGPLSLLRRQVNEVA |  |  |  | 2.27 ± 0.54 mM and 2.3 ± 0.6 mM | 6.94 ± 3.58 mM
